Laboratory results: paper PMC2804263 (Biochemistry, 2009)

Target: the molecule itself
Assay: crystal structure

B1: Bovine S100B (Ca^2+-S100B in the SBiX crystal structures) (natural protein)
chain: MSELEKAVVALIDVFHQYSGREGDKHKLKKSELKELINNELSHFLEEIKEQEVVDKVMETLDSDGDGECDFQEFMAFVAMITTACHEFFEHE
B1: binds.
